Measured values reported in patent US20250352611A1, “METHODS FOR TREATING CATARACTS USING POLYPEPTIDES” (REJUKON BIOPHARM INC., priority 2022, published 2025).

Experiments:
G3BP1 = molecular target: T1, G3BP1 (Mus musculus, UniProt P97855); assay: G3BP1 turbidity assay (OD395 nm); format: biochemical; conditions: G3BP1 30 μM, ratio range 0.75 to 25, room temperature, 10 minutes
T1 construct: Genes of full-length mouse G3BP1, G3BP1-eGFP; thrombin protease cleavage site (C); His6 (C); made in house; host or cells: Escherichia coli rosetta (DE3)
Experimental: The turbidity of G3BP1 (30 μM) in the presence of various concentrations of Champ-E, Champ-D, Champ-K, or Champ-Q was measured at a wavelength of 395 nm. Briefly, G3BP1 protein ([…]) and polypeptides Champ-E (RJK001), Champ-D (RJK002), Champ-K (RJK012) and Champ-Q (RJK005) were mixed well in a ratio range of 0.75 to 25 at room temperature for 10 minutes prior to turbidity assays. Absorbance at 395 nm (OD395 nm) was monitored at room temperature using Nanodrop ONE (Thermo Fisher Scientific, Inc.). […] The turbidity level reflects the degree of phase separation.
Briefly, the G3BP1 protein and the above-mentioned peptides were mixed at room temperature for 10 minutes prior to turbidity assays. 30 μM G3BP1 and peptide were mixed well in a ratio range of 0.75 to 25 before test. Absorbance at 395 nm (OD395 nm) was monitored at room temperature using Nanodrop ONE (Thermo Fisher Scientific, Inc.).
We followed the Turbidity Assays experiment as previously reported. Briefly, G3BP1 turbidity analysis were at room temperature and γD-crystallin protein was at 4° C. Proteins and Champ-E(RJK001), Champ-K, Champ-D or mutants are mixed at room temperature for 10 minutes prior to turbidity assays. 20 μM G3BP1 and 50 mg/ml(2.5 mM) γD-crystallin and peptide were mixed well in a ratio range of 0.75 to 25 before test. Absorbance at 395 nm (OD395 nm) was monitored at room temperature using Nanodrop ONE (Thermo Fisher Scientific, Inc.).

γD-crystallin = molecular target: T2, γD-crystallin (Homo sapiens, UniProt P07320); assay: 1H-15N HSQC NMR of γD-crystallin with peptide; format: binding; set-up: interaction with γD-crystallin from chemical shift difference (CSD): dose or concentration left out as unconfirmed
T2 construct: Wild-type human full-length γD-crystallin gene were inserted into pET14b vectors; made in house; host or cells: E. coli BL21 (DE3)
T2 sequence (P07320 1-174): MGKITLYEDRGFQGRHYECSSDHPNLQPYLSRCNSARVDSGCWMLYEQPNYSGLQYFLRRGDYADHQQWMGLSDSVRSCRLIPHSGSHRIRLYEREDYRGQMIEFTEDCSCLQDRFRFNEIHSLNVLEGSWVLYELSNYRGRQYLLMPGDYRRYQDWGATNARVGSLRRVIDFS
Experimental: To evaluate whether a protein undergoes small or significant structural changes before and after adding polypeptides, ^1H-^15N HSQC spectroscopy is a useful tool and can be used as a “fingerprint” of the three-dimensional structure. […] Wild-type human full-length γD-crystallin gene were inserted into pET14b vectors. E. coli BL21 (DE3) cells were transformed with these vectors. For protein production, cells were grown at 37° C. to an absorbance at 600 nm of 0.6 and induced by the addition of 0.5 mM IPTG at 37° C. for 4 h. For the N15 labeling of the protein, the transformed E. coli BL21(DE3) cells were cultured and induced in M9 medium with NH4Cl as the only nitrogen source. […] Using final 300 uM human γD-crystallin at 25° C., the two-dimensional [^1H-^15N] heteronuclear single quantum coherence (HSQC) spectra were recorded to determine the domain interactions at the residue-specific level.
Chemical shift difference (CSD) was measured for γD-crystallin alone or with Champ-E(RJK001). […]
HSQC spectrums were acquired and analysis with ccpNMR, amide ^1H-^15N combined chemical shift differences were calculated using the equation Δδ=[(0.125ΔδN)^2+ΔδH^2]^1/2. […]
The N15 labeled protein was mix with the unlabeled peptide with the ratio of 1:0, 1:2. […] Amide ^1H-^15N combined chemical shift differences were calculated using the equation Δδ) [(0.125ΔδN)^2+ΔδH^2]. Intensity changes were calculated by I/I0. […]

G3BP1-GFP protein = molecular target: T3, G3BP1-GFP protein (Mus musculus, UniProt P97855); assay: G3BP1-GFP phase separated droplet dissolution, confocal laser microscope; format: biochemical; conditions: 60 uM polypeptide, 20 uM G3BP1-GFP, pH7.5, 40s after addition
T3 construct: Genes of full-length mouse G3BP1, G3BP1-eGFP; thrombin protease cleavage site (C); His6 (C); made in house; host or cells: Escherichia coli rosetta (DE3)
Experimental: The prokaryotic expressed and purified G3BP1-GFP protein (pH7.5, 20 uM G3BP1-GFP) was induced to form phase separated droplets in vitro. Polypeptides Champ-E (RJK001), Champ-D (RJK002), Champ-K (RJK012) and Champ-Q (RJK005, […], SEQ ID NO: 34) (each of 60 uM) were added dropwise to the G3BP1-GFP droplets. The observation was performed continuously through a confocal laser microscope.
For G3BP1(FL)-eGFP, purified G3BP1(FL)-eGFP, Champ-E and its variants were changed were diluted to droplet buffer (50 mM Tris, pH 7.5, 150 mM NaCl) using SpinDesalt Column (smart). G3BP1(FL)-eGFP proteins were diluted to indicated concentrations and supplemented with PEG8000 with 1.25% final concentration for 10 min to induce phase separation as reported.

TEPQEESEEEVEEPEERQQTPEVVPDDSGTFYDQTVSNDLE [RJK001, polypeptide with hydrophilic and hydrophobic segment, expressed in E. coli]
turbidity of G3BP1 (OD395 nm) (G3BP1): reduced the turbidity in a concentration dependent manner
1H-15N HSQC spectra of γD-crystallin prior to and after peptide incubation (γD-crystallin; 300 uM 15N γD-crystallin, molar ratio 1:2, 25° C.): significant chemical shifts
interaction with γD-crystallin from chemical shift difference (CSD) (γD-crystallin; molar ratio γD-crystallin:RJK001 1:2): interacted with the full-length wildtype γD-crystallin protein
dissolution of G3BP1-GFP phase separated droplets (G3BP1-GFP protein): significantly dissolved the phase separated droplets
